Changes are numbered by the printed parent chain. In names and notes the source's numbering stands. Several values for one entry are separate records, joined by “and”; a condition that tells them apart may be missing. Identical values can stand only once.

The values that follow come from US20070286858A1 (Pfizer, published 2007).

Assay [1] has as its target T1, human RAGE-Fc fusion protein (human, UniProt Q15109 23-344).
T1 construct: also called hRAGE-Fc; huRAGE-Fc; not shown: Fc domain of human IgG
Put plainly: ELISA of in vitro translated ScFv on coated human RAGE-Fc, anti-Flag detection. How it is done: ELISA plates coated with human RAGE-Fc (5 ug/ml) or BSA (200 ug/ml) in bicarbonate buffer overnight at 4° C., washed with PBS+tween 0.05% and blocked for 1 hour at room temperature with 2% milk powder PBS. Plates were incubated with in vitro translated ScFv for 2 hours at room temp. Plates were blocked and detection was with anti-Flag antibody (1/1000 dilution) followed by rabbit anti-mouse HRP (1/1000 dilution). […] Values for Kd of the ScFv in both formats as determined by BIACORE™ are used to determine the optimum antigen concentrations for selection experiments.

Assay [2] concerns the target T2, soluble human streptavidin-tagged RAGE (human, UniProt Q15109 23-344).
T2 construct: also called hRAGE-SA; human RAGE-strep
Nature of the assay: BIACORE capture, hRAGE-SA over captured antibody, 1:1 Langmuir global fit, FC3. Here is the method:
(§1) The assays were performed by coating anti-human Fc antibodies onto a CM5 BIA chip with 5000 RU (pH 5.0, 7 min.) in flow cells 1-4. Each antibody was captured by flowing at 2.0 μg/ml over the anti-Fc antibodies in flow cells 2-4 (flow cell 1 was used as a reference).

Assay [3] concerns the target T3, murine RAGE-strep tag fusion protein (mouse, UniProt Q62151 23-343).
T3 construct: also called mRAGE-strep; mRAGE-SA
T3 chain: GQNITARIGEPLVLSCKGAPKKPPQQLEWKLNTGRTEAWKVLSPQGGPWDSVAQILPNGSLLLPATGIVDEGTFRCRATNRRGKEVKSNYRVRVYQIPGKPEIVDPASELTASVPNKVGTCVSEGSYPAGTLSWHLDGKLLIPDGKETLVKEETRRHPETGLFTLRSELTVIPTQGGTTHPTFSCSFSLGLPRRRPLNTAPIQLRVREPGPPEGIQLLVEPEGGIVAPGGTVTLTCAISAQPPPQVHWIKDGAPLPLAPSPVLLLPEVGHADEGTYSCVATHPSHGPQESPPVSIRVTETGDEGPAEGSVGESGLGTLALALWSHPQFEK
Put plainly: BIACORE capture, SA-Mu RAGE over captured antibody, 1:1 Langmuir global fit, FC4. Here is the method: as §1

Assay [4] concerns the target T2, soluble human streptavidin-tagged RAGE. Put plainly: BIACORE capture, hRAGE-SA over captured antibody, steady state affinity, FC2. Here is the method: as §1
Assay [5] has as its target T3, murine RAGE-strep tag fusion protein. Nature of the assay: BIACORE capture, SA-Mu RAGE over captured antibody, 1:1 Langmuir global fit, FC3. How it is done: as §1
In assay [6] the target is T2, soluble human streptavidin-tagged RAGE. Put plainly: BIACORE capture, hRAGE-SA over captured antibody, 1:1 Langmuir global fit, row Average. Here is the method: as §1
Assay [7] shares this target. Put plainly: BIACORE capture, hRAGE-SA over captured antibody, steady state affinity, row Average. How it is done: as §1
For assay [8] the target is unchanged. Nature of the assay: BIACORE capture, hRAGE-SA over captured antibody, 1:1 Langmuir global fit, FC4. How it is done:
as §1

Assay [9] shares this target. Put plainly: BIACORE capture, hRAGE-SA over captured antibody, steady state affinity, FC3. How it is done: as §1
Assay [10] shares this target. Nature of the assay: BIACORE capture, hRAGE-SA over captured antibody, steady state affinity, FC4. Here is the method:
as §1

The target is the same in assay [11]. Put plainly: BIACORE capture, hRAGE-SA over captured antibody, 1:1 Langmuir global fit, FC2. Here is the method: as §1
In assay [12] the target is T3, murine RAGE-strep tag fusion protein. Put plainly: BIACORE capture, SA-Mu RAGE over captured antibody, 1:1 Langmuir global fit, row Average. Here is the method:
as §1

For assay [13] the target is unchanged. Put plainly: BIACORE capture, SA-Mu RAGE over captured antibody, 1:1 Langmuir global fit, FC2. Here is the method: as §1
In assay [14] the target is T1, human RAGE-Fc fusion protein. Put plainly: competition ELISA on coated hRAGE-Fc; competitor 12.5 ng/ml biotinylated rat XT-M4. How it is done:
ELISA plates were coated overnight with 1 ug/ml human RAGE-Fc. […] Briefly, plates were coated overnight with 1 ug/ml human RAGE-Fc.

For assay [15] the target is unchanged. Nature of the assay: competition ELISA on human RAGE-Fc; labelled competitor not named.

B1: XT-M4 VH-VL ScFv construct (scFv)
scFv: EVQLVESGGGLVQPGRSLKLSCVVSGFTFNNYWMTWIRQTPGKGLEWVASINNSGDNTYYPDSVKDRFTISRDNAKSTLYLQMNSLRSEDTATYYCTRGGDITTGFDYWGQGVMVTVSSDGGGSGGGGSGGGGSSDIQMTQSPSSMSVSLGDTITITCRASQDVGIYVNWFQQKPGKSPRRMIYRATNLADGVPSRFSGSRSGSIYSLTISSLESEDVADYHCLEFDEHPLTFGSGTKVEIK
notes: Flag tag inferred from detection
Regarding B1, the binding result in [1] is recorded as “binds”.

B2: XT-M4-V14 (antibody, V domains shown)
VH: EVQLVESGGGLVQPGGSLRLSCAASGFTFNNYWMTWVRQAPGKGLEWVASIDNSGDNTYYPDSVKDRFTISRDNAKNSLYLQMNSLRAEDTAVYYCARGGDITTGFDYWGQGTLVTVSS
VL: DIQMTQSPSSLSASVGDRVTITCRASQDVGIYVNWFQQKPGKAPKRLIYRATNLADGVPSRFSGSRSGTDFTLTISSLQPEDFATYYCLEFDEHPLTFGGGTKVEIK
Turning to B2, the Kd in assay [2] was 11.7 nM; in [3], 2 nM; in [4], 16 nM; in assay [5] it was 1.9 nM; in [6], 12.9 nM; in [7], 16 nM. Further, the Kd is 13.2 nM in assay [8]; 15 nM in assay [9]; 16 nM in assay [10]; 13.8 nM in [11]; 2 nM in [12]; 2 nM in assay [13]. Moreover, the koff was 0.0464 s⁻¹ in [2]; 0.0041 s⁻¹ in assay [3]; 0.004 s⁻¹ in [5]; 0.0497 s⁻¹ in assay [6]; 0.0661 s⁻¹ in assay [8]; 0.0366 s⁻¹ in assay [11]. The koff in assay [12] turned out to be 0.0042 s⁻¹; in assay [13], 0.0043 s⁻¹. Besides, the kon in [2] was found to be 3.96e+06 M⁻¹ s⁻¹; in [3], 2.1e+06 M⁻¹ s⁻¹; in [5] it was 2.1e+06 M⁻¹ s⁻¹; in assay [6], 3.88e+06 M⁻¹ s⁻¹; in assay [8], 5.02e+06 M⁻¹ s⁻¹; in assay [11], 2.66e+06 M⁻¹ s⁻¹. For the same molecule, the kon in assay [12] came to 2.1e+06 M⁻¹ s⁻¹; in [13] it was 2.2e+06 M⁻¹ s⁻¹.

B3: humanized XT-M4 hVH-V2.0 / hVL-V2.7 (antibody, human IgG1, V domains shown)
VH: B2 VH
VL: B2 VL with F36Y, R66G
In the case of B3, the 50% inhibitory concentration (IC50) in assay [14] was determined as 8.5 µg/mL.

B4: humanized XT-M4 hVH-V2.0 / hVL-V2.4 (antibody, human IgG1, V domains shown)
VH: B2 VH
VL: B2 VL with F36Y, R46L
With B4, the IC50 in [14] was found to be 2.9 µg/mL.

B5: humanized XT-M4 hVH-V2.0 / hVL-V2.12 (antibody, human IgG1, V domains shown)
VH: B2 VH
VL: B2 VL with F36Y, K45R
Take B5: in assay [14], the half-maximal inhibitory concentration (IC50) is 2.7 µg/mL.

B6: humanized XT-M4 hVH-V2.0 / hVL-V2.14 (antibody, human IgG1, V domains shown)
VH: B2 VH
VL: B2 VL
B6 showed an IC50 in assay [14] of 0.2 µg/mL.

B7: humanized XT-M4 hVH-V2.0 / hVL-V2.11 (antibody, human IgG1, V domains shown)
VH: B2 VH
VL: B2 VL with K45R
On to B7, for which the 50% inhibitory concentration (IC50) in assay [14] is 0.15 to 1.05 µg/mL and 0.1 to 0.45 µg/mL.

B8: humanized XT-M4 hVH-V1.0 / hVL-V2.4 (antibody, human IgG1, V domains shown)
VH: B2 VH with D52N, A88S
VL: B2 VL with F36Y, R46L
In turn, B8 yielded a concentration for half-maximal inhibition (IC50) in assay [14] of 4.5 to 8.5 µg/mL.

B9: humanized XT-M4 hVH-V1.0 / hVL-V2.7 (antibody, human IgG1, V domains shown)
VH: B2 VH with D52N, A88S
VL: B2 VL with F36Y, R66G
As to B9, in [14], the half-inhibitory concentration (IC50) is 4 to 9.5 µg/mL.

B10: XT-M4-V11 (antibody, V domains shown)
VH: B2 VH
VL: B2 VL with K45R
B10: the Kd was determined as 12 nM in [2]; 2 nM in assay [3]; 16 nM in assay [4]; 2 nM in [5]; 12.5 nM in assay [6]; 16 nM in assay [7]. The Kd in [8] amounted to 13 nM; in assay [9], 15 nM; in assay [10], 17 nM; in [11], 13 nM; in assay [12] it was 2 nM; in [13], 2 nM. Besides, the koff in assay [2] was 0.039 s⁻¹; in assay [3], 0.0041 s⁻¹; in [5] it was 0.0042 s⁻¹; in assay [6], 0.0374 s⁻¹; in assay [8] it was 0.041 s⁻¹; in [11] it was 0.033 s⁻¹. Also, the koff in [12] turned out to be 0.0042 s⁻¹; in assay [13], 0.0043 s⁻¹. The kon in assay [2] was 3.4e+06 M⁻¹ s⁻¹; in assay [3], 2e+06 M⁻¹ s⁻¹; in assay [5], 2.1e+06 M⁻¹ s⁻¹; in assay [6], 3.01e+06 M⁻¹ s⁻¹; in assay [8], 3.2e+06 M⁻¹ s⁻¹; in assay [11] it was 2.5e+06 M⁻¹ s⁻¹. Further, the kon in assay [12] worked out at 2.1e+06 M⁻¹ s⁻¹; in assay [13], 2.2e+06 M⁻¹ s⁻¹.

B11: humanized XT-M4 hVH-V2.0 / hVL-V2.13 (antibody, human IgG1, V domains shown)
VH: B2 VH
VL: B2 VL with F36Y
Turning to B11, the IC50 in [14] was determined as 1.5 µg/mL.

B12: XT-H2 VH-VL ScFv construct (scFv)
scFv: QVQLQQSGAELAKPGASVKMSCKASGYTFTTYWMHWVKQRPGQGLYWIGYINPSTGYTEYNQKFKDKATLTADKSSSTAYMQLSSLTSEDSAVYYCARWAGYTIDYWGQGTSVTVSSDGGGSGGGGSGGGGSSDVVLTQTPLSLPVNIGDQASISCKSTKSLLNSDGFTYLDWYLQKPGQSPQLLIYLVSDRFSGVPDRFSGSGSGTDFTLTISRVEAEDLGVYYCFQSNSLPLTFGSGTKLEIK
notes: as for B1
B12: in assay [1], the binding result is “binds”.

B13: V2.2 (Y46E) / v3.0 (antibody, V domains shown)
VH: QVQLVQSGAEVKKPGASVKVSCKASGYTFTTYWMHWVRQRPGQGLEWIGYINPSTGYTEYNQKFKDRVTMTADTSISTAYMELSRLRSDDTAVYYCARWAGYTIDYWGQGTLVTVSS
VL: DIVMTQSPDSLAVSLGERATINCKSTKSLLNSDGFTYLDWYQQKPGQPPKLLIYLVSDRFSGVPDRFSGSGSGTDFTLTISSLQAEDVAVYYCFQSNSLPLTFGGGTKVEIK
notes: XT-H2 construct expressed in COS cells; also called XT-H2 hVH V2.2 + hVL V3.0
For the molecule B13, the ED50 in [15] came to 5 nM.

B14: V2.3 (I48M) / v3.0 (antibody, V domains shown)
VH: B13 VH with E46Y, I48M
VL: B13 VL
notes: XT-H2 construct expressed in COS cells; also called XT-H2 hVH V2.3 + hVL V3.0
In the case of B14, the ED50 in assay [15] was found to be 5 nM.
